Experimental findings from US20080139790A1 (ARANA THERAPEUTICS, published 2008) are described below.

Residue numbers refer to the chain shown, from its start.

Assay [1] has as its target T1, rat MOG (myelin-oligodendrocyte glycoprotein) (rat, UniProt Q63345 28-245).
T1 construct: mature; Not a purified protein: identified by the band size of about 25 kDa in a western blot of rat spinal cord lysate; also called antigen of M26; protein of size 25 kDa
T1 sequence (looked up): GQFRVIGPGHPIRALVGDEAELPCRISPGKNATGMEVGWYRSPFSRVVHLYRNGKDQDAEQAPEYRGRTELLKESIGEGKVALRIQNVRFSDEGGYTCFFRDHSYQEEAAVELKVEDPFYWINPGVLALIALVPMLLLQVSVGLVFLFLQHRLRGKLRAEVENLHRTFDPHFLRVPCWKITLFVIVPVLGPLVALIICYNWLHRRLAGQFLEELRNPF
Briefly: western blot of rat spinal cord lysate, AB138 at 10 ug/mL, anti-human IgG HRP. The procedure: The ability of AB138 to retain binding to the antigen of M26, rat MOG (myelin-oligodendrocyte glycoprotein), was investigated by Western Blot. 130 mg of rat spinal cord (IMVS, Australia) was homogenized in 1.8 ml CelLytic M Cell Lysis Reagent (SIGMA, C2978) and incubated for 30 minutes at 4° C. Further homogenization was performed by drawing the lysate through a 27 g1/2 needle several times followed by centrifugation at 4° C. and 13000 g for 30 minutes. The pellet and supernatant was diluted into SDS-PAGE sample buffer (125 mM Tris-HCl pH 6.8, 5% SDS, 0.25% bromophenol blue, 25% glycerol). Along with this 200 μl CHOK1SV cells at 1×10⁶ viable cells per ml were spun down at 13000×g at 4° C. for 1 minute and resuspended in 200 μl CelLytic M Cell Lysis Reagent (SIGMA). Following centrifugation at 4° C. and 13000×g for 30 minutes the supernatant was mixed with the appropriate amount of SDS-PAGE sample buffer. All samples, along with a sample of molecular weight markers, were run on a 4-20% Novex pre-cast gel (Invitrogen, Australia) for 2 hours at 120V. Proteins were then transferred to PVDF (BioRad, Australia) using a western blot apparatus in 1× Tris-Glycine Buffer with 20% methanol (BioRad, Cat 161+-0771) at 4° C. at 250 mA for 2 hours. […] Following washing, bound antibody was detected using the ECL Western Blotting Analysis System, (Amersham Biosciences Cat: RPN2109). […]

In assay [2] the target is T2, TNF-α (Peprotech Cat No: 300-01A) (UniProt P01375 77-233).
T2 construct: Coated on the ELISA plate at 1 µg/mL
Briefly: ELISA, TNF-α coated at 1 µg/mL, detection with anti-HIS HRP. How it is done:
TNF-α (Peprotech Cat No: 300-01A) was diluted to 1 μg/mL in carbonate coating buffer ([…] pH 9.6). 100 μL of this solution was added to a well of a 96 well plate and incubated at 4° C. overnight in a humidified container. The plate was then washed three times with wash buffer (0.01M PBS pH 7.2, 0.05% Tween-20) and then three times with 0.01M PBS pH 7.2. The wells were then blocked by adding 200 μL blocking buffer (1% w/v BSA in 0.01M PBS pH 7.2) to each well and incubating the plate at 25° C., in a humidified container, for 1 hour. Desalted domain antibody protein sample was diluted in antibody diluent (1% w/v BSA, 0.05% Tween-20 in 0.01M PBS pH 7.2) and added to the wells contain TNF-α and allowed to incubate for 1 hour at 25° C. The plate was then washed as previously described. 100 μL of Anti-HIS antibody HRP conjugate (Sigma-Aldrich, Australia Cat No: A7058) at 1:2000 in antibody diluent was used to detect bound domain antibody. Wells with antibody diluent only were used to assess background absorbance. After incubation at 25° C., in a humidified container, for 1 hour the plate washed again as previously described. 100 μL TMB substrate solution (Zymed, Cat No: 00-2023) was added to each well and the colour allowed to develop for 4 min. 100 μL of 1M HCl was added to terminate the colour development reaction and absorbance was determined at 450 nm (ref. 620 nm)
In general terms: ELISA stands for enzyme-linked immunosorbent assay.

T2 sequence (P01375 77-233 limits assumed): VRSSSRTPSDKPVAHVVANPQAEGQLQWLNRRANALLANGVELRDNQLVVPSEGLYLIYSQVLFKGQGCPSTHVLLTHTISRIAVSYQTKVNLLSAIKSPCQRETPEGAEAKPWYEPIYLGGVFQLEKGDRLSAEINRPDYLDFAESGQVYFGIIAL

B1: AB138 (antibody, human IgG1, kappa, V domains shown)
VH: QVQLVQSGAEVKKPGASVKVSCKASGYTFTSYAISWARQPPGQGLEWMGAFDPEYGSTTYAQKFQGRVTMTADTSTSTAYMELSSLRPEDTAVYYCARDVNFGNYFDYWGQGTLVTVSS
VL: ELVMTQSPATLSLSPGERATVSCRAGQSVSYYLAWYQQKPGQAPRLLIYGASTRATGIPARFSGSRSGTDFTLTISSLEPEDFAVYYCQQYSSWPPTFGQGTKLEIKR
notes: Expressed in CHOK1SV cells, purified on Protein A; also called marmoset human fusion antibody; MOG specific marmoset derived antibody variable regions with human IgG1 / kappa constant regions
With B1, in assay [1], the binding result is “binds”.

B2: CDR2-substituted domain antibody SEQ ID No 26 (other)
chain: DIQMTQSPSSLSASGDRVTITCRASQSIDSYLHWYQQKPGKAPKLLIYAASNRASGVPSRFSGSGSGTDFTLTISSLQPEDFATYYCQQVVWRPFTFGQGTKVEIKR
notes: not shown: 6xHIS tag introduced by vector pBAD/gIII
Turning to B2, the binding result in assay [2] is given as “binds”.

B3: unsubstituted acceptor anti-TNFα domain antibody (SEQ ID No: 7) (other)
chain: B2 chain with A49S, N52E, R53L, A54Q
notes: Single variable domain (domain antibody, dAb) from Basran et al. WO 2004/081026, CDR2 SASELQS; also called acceptor domain antibody; not shown: 6xHIS tag from vector pBAD/gIII (detection was by anti-HIS antibody); its positi
Regarding B3, the binding result in assay [2] was “binds”.

B4: CDR2-substituted domain antibody SEQ ID No 25 (other)
chain: B2 chain with A49K, A50V
notes: Secretory signal peptide from the vector, expressed in E. coli periplasm; not shown: 6xHIS tag introduced by vector pBAD/gIII
B4: in assay [2], the binding result is listed as “binds”.

B5: CDR2-substituted domain antibody SEQ ID No 28 (other)
chain: B2 chain with A49Y, N52F, R53L, A54Q, S55G
notes: as for B2
As to B5, the binding result in assay [2] is listed as “binds”.

B6: CDR2-substituted domain antibody SEQ ID No 31 (other)
chain: B2 chain with A49D, N52S, R53L, A54Q, S55P
notes: as for B2
On to B6, for which the binding result in assay [2] was “binds”.

B7: CDR2-substituted domain antibody SEQ ID No 29 (other)
chain: B2 chain with A49R, A50V
notes: as for B2
B7: in assay [2], the binding result is “binds”.
